B1: 1062 (protein, listed as Streptosporangium roseum)
chain: MIGNAVHCAPAQTSPSRSDPAPPRLTPYGLRCEHRQTPLGVGEPRPLLSWRLASARAGDDPVAYELEVGDWSSGRVEDPAAIGAVYGGPPLLPRTRYAWRVTVWARDGAEGSAESWFETGQDVWQASWIAHDPAAVAHMDPPTEGDQALSHHGLLPCPQLRTSFESTAGVTRARLLISAKGLYEARVNGHRAGDAELAPGWTDYRRRIQYQVHDVTPFLLDGENVLAATVADGWWSGFTGFDPRRPGYHYGRFPELIAELHLTFEDGSTRVVATGEGWRTGHGRVRYGDLLKGECHDARAETPGWDLPGFDDSSWRPAVVTGDDHSLLVASRDEPVRALGELLPVSSVLVRPGVHLVDFGQNIAGRVRLAVRDQEPGRRVTVRHGETLDGEDRLHTANLRTADATDVLITAGGAEEVFEPRFTYHGFRYAEVSGIDRLDDIRAIVLHSDTPWTGTFECSDPEINRLHDNIGWGQRGNFVSVPTDCPQRDERLGWLADAQVFLPTACFNADVSGFFSKWMRDVVDAQSPEGGFSNVAPLLSGVADEGAPGWADAGVLVPWHLYRVYGDDRFLDVDSMVRWVDFVARHNPDLIWRHRTGPHFADWLAPGPATPREVLATAFFHRSAALTAEAARVRGLYGEAERMGALADRVRAAFAAAFVGDGGLVEGDTQTGYLLALAFGLLTPEQGRGAAARLAALVEESGPLTGFLGVNLLCPVLSAHGRDDLAHALLRRTDPPSWLYQVRHGATTVWERWDGVGAASMNSFNHYAFGSIGEWLYSGVAGIAQAPGSVAFREVVIRPLPGDLSRAGASYESARGLISVSWHNDAEGFRLQTRIPPGATATVHLPGGETRRVTSGDHIFELVRGEKA
B2: 1029 (protein, listed as Rhodococcus jostii)
chain: MTTPTHLRLEHLRPGEPCGTTHPRLSWRLPTGSTGQQAYQVRVAGAFDRTSSTLFTTEIIEGRDHVLVRPWTATHPAPTAGEARTWQVRCWTDLGPSDWSEPATWVTGLLHGGDLTADWIEPYEPDVPPLGHRPVYRLRASWRPRAEIAHASLFATAHGIYEFFVNDVRVGDHELTPGFTSYRAHLQVQHFDVTDLLHPEHNDLGILLSDGWFRGRHGFERHGDSFGDRVAALAELHVRYADGTSERFGTGDGWTSTPSEIDAADLMDGQRVDLRRVPAGEVRHPAVVARGGLYDDRSRLTTGVAPPVRRIETLAAVAVTEPRPGTYVVDFGQNVNGWVTAADLGPAGTHATLTHGESLAADGSVDTDHLRAFEFATGTGLPAGQVDHVVSSGRAGEAFESRHTTHGFRYVQFDGLATKPGPGSVTAAVVHTDLEQVGSFGCDNDRLAKLHAAAVWSFRGNACDVPTDCPQRERSGFTGDWQVYVETAAFTHDVAGFSDKWLRDLAADQWPDGTVPNIVPNPAGNQPSGNHFADIANGSAGWGDAAVIVPWQLWRLYGDVEVLERQYDSMTRWVERAAGAARDRRHPDRARARPTPDAHEEYLWDTGFHWGEWLEPDEIPAPDPARDHSVVATAYLARSAELLAQIAGVLGRDRDECRYAAIAAGAVRAWQREFITPEGTLTHPTQANYVRALEFDLVPAEGRRRFADELAQLLVDNDYHLGTGFLATGMLLPALARNGHLDTAYRVLLSTGNPSWMEMIDRGATTIWERWDGVDENGRATASLNHYAKGAVISFLHQFVAGLRPAETTGPHTVGYRRFVVDPRPGGDINTAHAEHCSPYGNIAVRWTIADDVFTLSLTVPSGSECELRLGDTTELLRSGTYTRTCPAARVTQRSSRASPTR
B3: 1048 (protein, listed as Klebsiella oxytoca)
chain: MSQAIQHNSQVMMTRHPNFLRTAEALRPALSRQAHPPIAVVEAHADAAALFGWRAEPVSTLAAFYQRELSSGDSVIIDFGSHYVGYLHFLCQSAGSPPDAPAHLQLTFGETLSEVCEPFSDYQGWLSSSWLQQQDLWLDVLPAEIDLPRRYCFRYLKVEVKAVSRKFRLQFTQIEVNAVTSASGACPAATTSDPQLRAIDNVAVLTLQNCMQEVFEDGPKRDRRLWLGDLRLQALVNDVTFARHDLVRRCLYLFAGHTREDGMVSANVFVQPDVIADDTFLFDYSLFFVDVLYNYLQSAEDMATARELWPTARRQVELALTRCDASGVVRDSDDWWVFIDWQASLNKQAAAQGVLIYCLQRAIWLAERFEPELAVSYRQRLQQLKSAALDALWDPQQGFYVSGARRQVSWASQIWLVLAEVGTPQQRREIMRNLEKNPPAVAMNTPYLRHHYIAALLQCGLRDEAIAQIKAYWGAMVDYGADTFWEIFDPAHPDFSPYGSKLINSYCHAWSCTPAWFIRQYGL
B4: 1002 (protein, listed as Flavobacterium johnsoniae)
chain: MKNFKNILLGLSFLITFISNGQILPVRLTTEMAENPLAVIENQPKFSWQLISKESDVSQVAYLILVASSEEKLNNDDGDIWNSGRVNTDKNLHIVYSGKPLKSETKYFWKVKVWNQLGKISKWSKTASFRTASLESDLNPIWIGAITKADSHLPEGRNYHTATFNREKKMSFINASDSLARRSIMLRKPFEVEKAVKEAVVYISGLGHYELTINGKKVGNSQFAPLWTDYDKTVNYNVYELSAKEFQKGDNVIGVLLGNGMYNTLAERYTKFFVSFGPPTLFFKMKIKYNDGSEEIIKSDRTWKYSKSPITYNSIFGGEDYNANLEQKDWNRKGFKDRDWKKVVIQEAPKGILRPQTAPPVTIQKQYEVKTVKELKPNFYVFDMGQNLSGFPTIKVKGKRGQTIRVWVAEGLNEEGTIAQGRSGKPYYYDYTLKGKDVEEWTPKFSFYGYQYVQIENINYKEDKNKEFPTLVDLKSNFIYNSAGEAGSFACSNEIFNKTHELINNSIKSNFQSVFTDCPQREKLGWLEEIQLNGPSLMFNYNLQTFLPATMQNISDSQRENGLIPTIVPEYVIFGGDFTDSPEWGVTGVILPWMYYEYYGDASLLEKYFPVMKNYVDYLGTKATNHIVSHGLGDWYDYGTHPAGYSKNSPIALSATSHYYYGAFLVAKASKLLGKTEDFEKYNTLASEIKTAFNAAFFNEETKQYGTSSQFSNAVPIFMDIVEPQYKEAVMQNLLADIKEKGDRLTTGDVGNRYLFQTLARNGENETMYRMHNHYDAPGYGFQIKFGLTTLTEQWDPRKGNSWNHFMLGQIEEWFYQSLAGIMSDPEKPGFKHFFIQPEVVGDMTFAKADYQSVYGKIASSWEKKDGKFILTVQIPVNTTATIKLPVAKNSEIKMDGKRVRAGFDEKAQKPVLELGSGIYTIECTI
B5: 1037 (protein, listed as Pedobacter heparinus)
chain: MNLKRHILLTAILMLNLSIAFSQVTLQNLRCEMLQNPLGIDVARPRLSWQIASTRNDVQQTAYHILVASSLAKLTENDADIWNSGKVNSAESLYNLYAGQTLKSKNKYYWKVKVYTSKGESSWSQPAFWLMGLLHYKDWEGRWIGFDRFFTGDNEAGARLSARYFRKEFSTTKTVASATAYLMGMGLYELYIDGQKIGDQVLAPTATDYTKNIKYNTLDVTEQLRQGGNHAIGVILGNGRFFAMRQSKAYKVKTFGLPKLLLQVNIKYTDGSTATIKTDDTWKGTADGPILANNEYDGEIYDARKEFKGWSEPGFKEDKWLRAEYVQEPGGTYEAQLNEGMKVMKTLSPVSITRRPNGNYILDFGQNFSGWVKFNVKGPRGTSVSLRFAESLEPNGELFRTNLRDARATDIYTLKGEGTETWAPRFTYQGFRYVELNGYPGVPQKSDFSGCLVYDDMKTAGTFESSNSLLNQIFKNAWWGIASNYKGMPVDCPQRNERQPWLGDRTVGAYGESFLFDNTALYKKWLDDIRYAQKEDGAIPDVAPAFWRYYSDNVTWPATLLFVADMLYRQTGDSTVIRKNYPAVKKWMSYMKDRYMSSEGIMTKDSYGDWCAPPATAEDGKGVNADQKHPSALIATAYYYHLANMMAGYSALTGNAGDREGYTRLAAEVKNAFNRKFYNSQGYYGDNKLTDNLLPVYFGLVEEADKGRVVMQICSIIEEKNNGHLSTGLIGTQFLMRTLTEAGRPDLAYRIASQKTYPSWGYMIENGATAIWELWNGNTAAPKMNSQNHVMMLGDLMIWYYENLAGIKAAAPGFKEITMKPELIEGLNNVTAGYQSVYGLIKSSWTKTGKKFSWNISIPPNTRAKAYLPASMQSQVKKGATADGAKYIMAENGRVVFELKSGEYAFVVEQ
B6: 1000 (protein, listed as Aspergillus terreus)
chain: MALSISQVAFEHHRTALGIGETQPRVSWRFDGNVSDWEQRAYEIEVKRAGHDADVFRSESSDSVLVPWPSSPLQSGEEATVRVRSFGSDGQHDTPWSDAVTVEPGLLTPDDWHDAVVIASDRPTEVDATHRPIQFRKEFSVDDSYVSARLYITALGLYEARINDQRVGDHVMAPGWQSYQYRHEYNTYDVTDLLKQGPNAIGVTVGEGWYSGRIGYDGGKRNIYGDTLGLLSLLVVTKSDGSKLYIPSDSSWKSSTGPIISSEIYDGEEYDSRLEQKGWSQVGFNSTGWLGTHELSFPKERLASPDGPPVRRVAEHKLANVFSSASGKTVLDFGQNLVGWLRIRVKGPKGQTIRFVHTEVMENGEVATRPLRQAKATDHFTLSGEGVQEWEPSFTYHGFRYVQVDGWPADTPLDENSVTAIVVHSDMERTGYFECSNPLISKLHENILWSMRGNFFSIPTDCPQRDERLGWTGDIHAFSRTANFIYDTAGFLRAWLKDARSEQLNHSYSLPYVIPNIHGNGETPTSIWGDAIVGVPWQLYESFGDKVMLEEQYGGAKDWVDKGIVRNDVGLWDRSTFQWADWLDPKAPADDPGDATTNKYLVSDAYLLHSTDMLANISTSLSKGEEASNYTEWHAKLTKEFQKAWITSNGTMANETQTGLALPLYFDLFPSAEQAQSAAKRLVNIIKQNDYKVGTGFAGTHLLGHTLSKYGESDAFYSMLRQTEVPSWLYQVVMNGTTTWERWDSMLPNGSINPGQMTSFNHYAVGSVGSWLHEVIGGLSPAEPGWRRINIEVVPGGDLQQASTKFLTPYGMASTKWWLDGQDQSCGGFDFHLVAEVPPNTRATVVLPGKGGEKVDVGSGVHEYHVRCVKL

What was measured:
Format in all cases: biochemical, Quillaja saponaria
[1] = Experiment 6-1: screening of rhamnosidases for derhamnosylation of saponins in treated bark extract (2%), QS-17 2296 to QS-18 2150 (PAR %); conditions: TBE 2%, pH 7.5, 30 degC, 18 h; TIC peak area ratio percent of rhamnosylated starting saponin to derhamnosylated product, LCMS/MS; negative controls 4.876, 5.225
[2] = Experiment 6-1: screening of rhamnosidases for derhamnosylation of saponins in treated bark extract (2%), desglucosyl-QS-17 2134 to QS-21 1988 (PAR %); conditions: TBE 2%, pH 7.5, 30 degC, 18 h; TIC peak area ratio percent, LCMS/MS; negative controls 2.719, 2.158
[3] = Experiment 6-1: screening of rhamnosidases for derhamnosylation of saponins in treated bark extract (2%), QS-17 2310 to QS-18 2164 (PAR %); conditions: TBE 2%, pH 7.5, 30 degC, 18 h; TIC peak area ratio percent, LCMS/MS; negative controls 3.061, 2.429
[4] = Experiment 6-1: specificity of rhamnosidases towards other rhamnose residues (C3 saccharide rhamnose, C28 saccharide rhamnose); conditions: TBE 2%, pH 7.5, 30 degC, 18 h; LCMS/MS; negative controls 0.18, 0.17

Row | Molecule | QS-17 (PAR %) [1] [%] | Peak75 (PAR %) [2] [%] | Peak57 (PAR %) [3] [%] | ratio PP/QS-21 [4]
1 | B1 | 4.916 | 2.410 | 2.941 | 0.18
2 | B2 | 4.926 | 2.069 | 3.334 | 0.16
3 | B3 | 5.007 | 2.441 | 2.465 | 0.17
4 | B4 | 4.922 | 2.538 | 2.843 | 0.16
5 | B5 | 4.972 | 2.424 | 2.764 | 0.17
6 | B6 | 5.010 | 2.788 | 3.119 | 0.16
